Series [1] has as its target T1, TylM1 (Streptomyces fradiae, UniProt P95748).
T1 sequence (P95748 2-255): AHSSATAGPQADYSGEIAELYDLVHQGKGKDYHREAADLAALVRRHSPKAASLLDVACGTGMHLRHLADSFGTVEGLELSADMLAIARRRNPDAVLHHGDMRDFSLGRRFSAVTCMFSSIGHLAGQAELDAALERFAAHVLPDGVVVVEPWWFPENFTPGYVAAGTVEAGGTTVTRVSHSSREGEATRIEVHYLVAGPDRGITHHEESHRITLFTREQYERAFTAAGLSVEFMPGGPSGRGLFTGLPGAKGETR
Put plainly: X-ray crystal structure, […] Å. The format is binding. To be noted: complex with SAH; active site.

In series [2] the target is T1, TylM1. As to the kind of experiment: X-ray crystal structure, […] Å. The series is classed as binding. The following applies: complex with SAH; active site. The source holds these as a separate data set.
Substrate in series [3]: Cc1cn([C@H]2C[C@H](O)[C@@H](COP(=O)(O)OP(=O)(O)O[C@H]3O[C@H](C)[C@@H](O)[C@H](N)[C@H]3O)O2)c(=O)[nH]c1=O
As to the kind of experiment: purified protein. The following applies: methyl donor SAM.

Substrate in series [4]: Cc1cn([C@H]2C[C@H](O)[C@@H](COP(=O)(O)OP(=O)(O)O[C@H]3O[C@H](C)[C@H](O)[C@H](N)[C@H]3O)O2)c(=O)[nH]c1=O
Put plainly: purified protein. To be noted: methyl donor SAM.

A word on the Km: it is the substrate concentration at which the rate is half of its maximum. For orientation: kcat means the maximal rate divided by the concentration of active sites.

With `CN[C@H]1[C@@H](O)[C@@H](C)O[C@H](OP(=O)(O)OP(=O)(O)OC[C@H]2O[C@@H](n3cc(C)c(=O)[nH]c3=O)C[C@@H]2O)[C@@H]1O` [dTDP-3-N-methylamino-3,6-dideoxygalactose], the “X-ray crystal structure, 2.2 Å” value in series [1] was “enzyme in complex with SAH and dTDP-3-N-methylamino-3,6-dideoxygalactose”.
On to `Cc1cn([C@H]2C[C@H](O)[C@@H](COP(=O)(O)OP(=O)(O)O[C@H]3O[C@H](C)[C@@H](O)[C@H](N(C)C)[C@H]3O)O2)c(=O)[nH]c1=O` [dTDP-mycaminose], for which, in series [2], the “X-ray crystal structure, 1.6 Å” value is “The first structure determined for this investigation was that of TylM1 in complex with SAH”.

B1: TylM1 (Streptomyces fradiae) (protein)
chain: AHSSATAGPQADYSGEIAELYDLVHQGKGKDYHREAADLAALVRRHSPKAASLLDVACGTGMHLRHLADSFGTVEGLELSADMLAIARRRNPDAVLHHGDMRDFSLGRRFSAVTCMFSSIGHLAGQAELDAALERFAAHVLPDGVVVVEPWWFPENFTPGYVAAGTVEAGGTTVTRVSHSSREGEATRIEVHYLVAGPDRGITHHEESHRITLFTREQYERAFTAAGLSVEFMPGGPSGRGLFTGLPGAKGETR
Regarding B1, in series [3], the Km was 79 ± 15 µM and the kcat worked out at 0.75 ± 0.09 s⁻¹. In series [4], the Km was 1540 ± 80 µM and the kcat worked out at 0.61 ± 0.07 s⁻¹.

Source of the values: paper PMC3985918 (Biochemistry, 2014).
